One protein from patent US20050180949A1 (NUVELO, published 2005) can be followed below.

This data set deals with the molecule itself. Put plainly: non-reducing vs reducing SDS-PAGE of the purified protein, Western blot with HRP-conjugated anti-V5 antibody (self-association / oligomerization). As to the method: Purified recombinant full-length hC1Q/TNF7 protein expressed in HEK-293 cells was treated as follows: N=non-reduced only; N+H=non-reduced plus heating at 100° C. for 10 min; R=reduced only; and R+H=reduced plus heating at 100° C. for 10 min.
Studies of C1Q and 1C1Q-related proteins, such as adiponectin (Ad), indicate that most of the proteins form trimer, hexamer and higher molecular weight species (Shapiro and Scherer, Curr. Biol. 8:335-338 (1998) herein incorporated by reference in its entirety). To determine the oligomerization status of the hC1Q/TNF7 protein, the HEK293-expressed full-length hC1Q/TNF7 was treated under various conditions: non-reduced only (N); non-reduced plus heating at 100° C. for 10 min (N+H); reduced only (R); and reduced plus heating at 100° C. for 10 min (R+H). […] After heat treatment under non-reducing conditions, hC1Q/TNF7 migrated in 3 major bands: approximately 40, approximately 80, and approximately 160 kDa (Lane 2). In contrast, when hC1Q/TNF7 was treated under reducing conditions with or without heating, it ran as a single band at approximately 40 kDa (Lanes 3 and 4). Similar results were obtained using hC1Q/TNF7-F1 protein and an N-terminal V5His-tagged version of full-length hC1Q/TNF7 (not shown).
In general terms: A western blot detects proteins with antibodies after separation by electrophoresis.

B1: full-length hC1Q/TNF7, carboxy-terminal V5His6-tagged, expressed in HEK-293 cells (ligand)
chain: QPRGNQLKGENYSPRYICSIPGLPGPPGPPGANGSPGPHGRIGLPGRDGRDGRKGEKGEKGTAGLRGKTGPLGLAGEKGDQGETGKKGPIGPEGEKGEVGPIGPPGPKGDRGEQGDPGLPGVCRCGSIVLKSAFSVGITTSYPEERLPIIFNKVLFNEGEHYNPATGKFICAFPGIYYFSYDITLANKHLAIGLVHNGQYRIKTFDANTGNHDVASGSTVIYLQPEDEVWLEIFFTDQNGLFSDPGWADSLFSGFLLYVDTDYLDSISEDDEL
notes: The signal peptide cleavage site is only predicted; Oligomer state as told: dimers, tetramers and higher order oligomers; also called HEK293-expressed full-length hC1Q/TNF7; human C1Q/TNF7; not shown: C-terminal V5His6 tag from the pIntron vector
Turning to B1, the binding result is listed as “binds”.
